In PMC7980224 one finds Kd data, which are given here for one substance.

Assay in all cases: EMSA
Holding throughout (details): apparent Kd; RNA of Fig S1f not named, assumed U1; EMSA: 10 nM labeled RNA, 2-fold protein dilutions up to 10 uM, 2 h on ice, 1% TBE-agarose, 50 V, 4 C; binding buffer not stated (protein elution buffer 150 mM …)
A general note: A gel shift assay detects complexes by their altered migration in electrophoresis.

For one data set, the system named is INTS5;INTS8.
For data set [1], the system named is INTS10;INTS13;INTS14 (human?;human?;human?).
For data set [2], the system named is INTS4;INTS9;INTS11 (human?;human?;human?).

In the case of U1 pre-snRNA stem-loop 4 with 3' box, the Kd in the data set on INTS5;INTS8 worked out at 3100 nM; in data set [1], 780 nM; in data set [2], 820 nM.
